Reference: IntAct's records for PubMed 22668317

B1: LPS-assembly protein LptD (Escherichia coli (strain K12)), P31554 (parent)
chain: MKKRIPTLLATMIATALYSQQGLAADLASQCMLGVPSYDRPLVQGDTNDLPVTINADHAKGDYPDDAVFTGSVDIMQGNSRLQADEVQLHQKEAPGQPEPVRTVDALGNVHYDDNQVILKGPKGWANLNTKDTNVWEGDYQMVGRQGRGKADLMKQRGENRYTILDNGSFTSCLPGSDTWSVVGSEIIHDREEQVAEIWNARFKVGPVPIFYSPYLQLPVGDKRRSGFLIPNAKYTTTNYFEFYLPYYWNIAPNMDATITPHYMHRRGNIMWENEFRYLSQAGAGLMELDYLPSDKVYEDEHPNDDSSRRWLFYWNHSGVMDQVWRFNVDYTKVSDPSYFNDFDNKYGSSTDGYATQKFSVGYAVQNFNATVSTKQFQVFSEQNTSSYSAEPQLDVNYYQNDVGPFDTRIYGQAVHFVNTRDDMPEATRVHLEPTINLPLSNNWGSINTEAKLLATHYQQTNLDWYNSRNTTKLDESVNRVMPQFKVDGKMVFERDMEMLAPGYTQTLEPRAQYLYVPYRDQSDIYNYDSSLLQSDYSGLFRDRTYGGLDRIASANQVTTGVTSRIYDDAAVERFNISVGQIYYFTESRTGDDNITWENDDKTGSLVWAGDTYWRISERWGLRGGIQYDTRLDNVATSNSSIEYRRDEDRLVQLNYRYASPEYIQATLPKYYSTAEQYKNGISQVGAVASWPIADRWSIVGAYYYDTNANKQADSMLGVQYSSCCYAIRVGYERKLNGWDNDKQHAVYDNAIGFNIELRGLSSNYGLGTQEMLRSNILPYQNTL
partner: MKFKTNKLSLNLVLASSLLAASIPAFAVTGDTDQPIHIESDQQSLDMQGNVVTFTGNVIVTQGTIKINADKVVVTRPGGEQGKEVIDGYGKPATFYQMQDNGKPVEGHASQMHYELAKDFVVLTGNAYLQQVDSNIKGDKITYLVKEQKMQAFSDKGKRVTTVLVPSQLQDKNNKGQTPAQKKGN

Variants of: B1
Settings: with lpta_ecoli lptA

Effect of a mutation on the interaction, disrupting interaction:
C31S;C173S
C31S;C725S
C724S;C725S
